Changes are numbered by the printed parent chain. Values belong to the binder of their own block, whether it stands above or below them.
How the values were obtained:
[1] = biological target: T1, human EphA2 (form used in the affinity measurements not stated) (human, UniProt P29317 24-534, limits assumed); experiment: surface plasmon resonance (BIAcore 3000), purified scFv
T1 construct: The only EphA2 reagent it describes is human EphA2-Fc
Procedure: 2A4, 2E7 and 12E2 as well as parental EA2 scFv and humanized 4H5 scFv were induced for expression in E. coli in a 1 L culture volume. The supernatants containing soluble, secreted scFv fragments were spun to remove cellular debris then passed over an anti-FLAG column (Sigma) to purify and isolate the variant proteins. The purified affinity optimized variants were analyzed by surface plasmon resonance detection using a BIAcore 3000 instrument (Pharmacia Biosensor, Uppsala, Sweden). […] (see FIG. 5).

[2] = biological target: T1, human EphA2 (form used in the affinity …); experiment: method not stated; humanized clone from framework shuffling, reference chimeric Fab EA2

T1 sequence (P29317 24-534 limits assumed): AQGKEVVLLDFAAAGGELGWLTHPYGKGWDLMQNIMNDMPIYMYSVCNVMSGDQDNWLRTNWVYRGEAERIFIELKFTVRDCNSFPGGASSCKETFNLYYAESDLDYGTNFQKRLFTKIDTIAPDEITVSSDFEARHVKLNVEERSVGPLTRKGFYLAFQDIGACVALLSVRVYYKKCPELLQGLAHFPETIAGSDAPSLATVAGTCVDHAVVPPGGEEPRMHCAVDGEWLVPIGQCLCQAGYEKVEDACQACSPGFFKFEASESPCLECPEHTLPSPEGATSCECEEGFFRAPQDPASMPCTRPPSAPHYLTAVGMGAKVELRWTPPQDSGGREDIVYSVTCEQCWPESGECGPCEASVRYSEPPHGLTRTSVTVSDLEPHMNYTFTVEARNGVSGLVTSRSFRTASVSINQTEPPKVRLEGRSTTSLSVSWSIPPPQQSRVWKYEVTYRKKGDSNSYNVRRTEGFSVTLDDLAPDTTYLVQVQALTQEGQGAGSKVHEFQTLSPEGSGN

Kd [1]: 5.6 nM
kon [1]: 652000 M⁻¹ s⁻¹
B1: 2A4 scFv (affinity optimized combinatorial variant of humanized 4H5) (scFv)
scFv: QVQLLESGGGLVQPGGSLRLSCAASGFTFSSYTMSWVRQAPGQALEWMGTISSRGTYTYYPDSVKGRFTISRDNAKNSLYLQMNSLRAEDTAVYYCAREAIFTHWGRGTLVTVSSGGGGSGGGGSGGGGSDIQLTQSPSSLSASVGDRVTITCKASQDINNYHSWYQQKPGQAPRLLIYRANRLVDGVPDRFSGSGYGTDFTLTINNIESEDAAYYFCLKYNVFPYTFGQGTKVEIK

kon [1]: 518000 M⁻¹ s⁻¹
B2: 12E2 scFv (affinity optimized combinatorial variant of humanized 4H5) (scFv)
scFv: B1 scFv with H104Y, H163L, V185F, N222D, V223R

kon [1]: 563000 M⁻¹ s⁻¹
B3: 2E7 scFv (affinity optimized combinatorial variant of humanized 4H5) (scFv)
scFv: B1 scFv with H163G, V223R

fold increase of affinity against chimeric Fab EA2 [2]: ~20 fold
B4: humanized clone 4H5 (from framework shuffling of murine mAb EA2; format in this comparison not stated) (antibody, V domains shown)
VH: QVQLLESGGGLVQPGGSLRLSCAASGFTFSSYTMSWVRQAPGQALEWMGTISSGGTYTYYPDSVKGRFTISRDNAKNSLYLQMNSLRAEDTAVYYCAREAIFTYWGRGTLVTVSS
VL: DIQLTQSPSSLSASVGDRVTITCKASQDINNYLSWYQQKPGQAPRLLIYRANRLVDGVPDRFSGSGYGTDFTLTINNIESEDAAYYFCLKYDVFPYTFGQGTKVEIK
notes: Compared with chimeric Fab EA2; also called humanized Mab 4H5

Reference: US20090220527A1 (MEDLMMUNE, published 2009)
